Assay results published in article PMC2532728 (Nucleic Acids Research, 2008).

Target: the molecule itself
Assay: SEC

B1: recombinant ZmWHY1 (full-length mature ZmWHY1, lacking the transit peptide) (natural protein)
chain: ASSRKAAAVPACPVASPRHSDYFDPRAPPPPRGDGGYGRPPNGAQDGRVFTSYSIYKGKAALSFDPRPPLFVPLDSGAYKVAKEGFVLLQFAPAVATRQYDWTRKQVFSLSVWEIGTLLTLGPTDSCEFFHDPFKGRSEEGKVRKVLKIEPTPDGNGRFFNLSVQNRLINVDESIYIPITKGEFAVIVSTFNYIIPHLMGWSTFVSSIKPEESRPYSRPQSTSEYEWRR
B1 was tested, and the “stoichiometry N” value was 4.
